Experimental data published in the supplement of paper PMC5998384.

Key:
HeLa Kyoto [1] = assay: solubility in G1/S (NP-40 vs SDS abundance) (log2 ratio); higher = more soluble; settings: cell cycle stage: G1/S
HeLa Kyoto [2] = assay: melting temperature (median over replicates), in situ; higher = more thermally stable
HeLa Kyoto [3] = assay: solubility change mitosis vs G1/S (difference of NP-40 vs SDS log2 ratios) (log2 ratio difference); higher = more soluble in mitosis
HeLa Kyoto [4] = assay: thermal stability score vs G1/S (z-score of summed log2 fold changes over temperatures); higher = more thermally stable than in G1/S
[5] = cell cycle stage: early G1 (4.5 h after nocodazole release)
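For melting temperature (median over replicates), in situ in this document: HeLa Kyoto cells synchronized by double thymidine or nocodazole block, proteins quantified by TMT10plex mass spectrometry, three independent biological replicates.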
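For solubility change mitosis vs G1/S (difference of NP-40 vs SDS log2 ratios) in this document: synchronized HeLa Kyoto cells (double thymidine block for G1/S, nocodazole release for mitosis), protein amounts in NP-40 versus SDS lysates quantified by mass spectrometry, three biological replicates.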
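For solubility in G1/S (NP-40 vs SDS abundance) in this document: HeLa Kyoto cells arrested at G1/S by double thymidine block, proteins quantified by TMT10plex mass spectrometry in mild NP-40 versus SDS extracts, three biological replicates.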
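For thermal stability score vs G1/S (z-score of summed log2 fold changes over temperatures) in this document: synchronized HeLa Kyoto cells, proteins quantified by TMT10plex mass spectrometry, three biological replicates, mitosis taken 0.5 h after nocodazole release, G1/S directly after double thymidine block.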

Sequence | solubility in G1/S (log2) (HeLa Kyoto [1]) | melting temperature (HeLa Kyoto [2]; cell cycle stage: G1/S) [°C] | melting temperature (HeLa Kyoto [2]; cell cycle stage: mitosis) [°C] | solubility change mitosis (log2) (HeLa Kyoto [3]) | thermal stability score (HeLa Kyoto [4]; [5]) | thermal stability score (HeLa Kyoto [4]; cell cycle stage: mitosis)
METPSQRRATRSGAQASSTPLSPTRITRLQEKEDLQELNDRLAVYIDRVRSLETENAGLRLRITESEEVVSREVSGIKAAYEAELGDARKTLDSVAKERARLQLELSKVREEFKELKARNTKKEGDLIAAQARLKDLEALLNSKEAALSTALSEKRTLEGELHDLRGQVAKLEAALGEAKKQLQDEMLRRVDAENRLQTMKEELDFQKNIYSEELRETKRRHETRLVEIDNGKQREFESRLADALQELRAQHEDQVEQYKKELEKTYSAKLDNARQSAERNSNLVGAAHEELQQSRIRIDSLSAQLSQLQKQLAAKEAKLRDLEDSLARERDTSRRLLAEKEREMAEMRARMQQQLDEYQELLDIKLALDMEIHAYRKLLEGEEERLRLSPSPTSQRSRGRASSHSSQTQGGGSVTKKRKLESTESRSSFSQHARTSGRVAVEEVDEEGKFVRLRNKSNEDQSMGNWQIKRQNGDDPLLTYRFPPKFTLKAGQVVTIWAAGAGATHSPPTDLVWKAQNTWGCGNSLRTALINSTGEEVAMRKLVRSVTVVEDDEDEDGDDLLHHHHGSHCSSSGDPAEYNLRSRTVLCGTCGQPADKASASGSGAQVGGPISSGSSASSVTVTRSYRSVGGSGGGSFGDNLVTRSYLLGNSSPRTQSPQNCSIM [LMNA] | -1.05 | 54.8 | 52.9 | 1.64 | -9.6 | -5.85
MGGSASSQLDEGKCAYIRGKTEAAIKNFSPYYSRQYSVAFCNHVRTEVEQQRDLTSQFLKTKPPLAPGTILYEAELSQFSEDIKKWKERYVVVKNDYAVESYENKEAYQRGAAPKCRILPAGGKVLTSEDEYNLLSDRHFPDPLASSEKENTQPFVVLPKEFPVYLWQPFFRHGYFCFHEAADQKRFSALLSDCVRHLNHDYMKQMTFEAQAFLEAVQFFRQEKGHYGSWEMITGDEIQILSNLVMEELLPTLQTDLLPKMKGKKNDRKRTWLGLLEEAYTLVQHQVSEGLSALKEECRALTKGLEGTIRSDMDQIVNSKNYLIGKIKAMVAQPAEKSCLESVQPFLASILEELMGPVSSGFSEVRVLFEKEVNEVSQNFQTTKDSVQLKEHLDRLMNLPLHSVKMEPCYTKVNLLHERLQDLKSRFRFPHIDLVVQRTQNYMQELMENAVFTFEQLLSPHLQGEASKTAVAIEKVKLRVLKQYDYDSSTIRKKIFQEALVQITLPTVQKALASTCKPELQKYEQFIFADHTNMIHVENVYEEILHQILLDETLKVIKEAAILKKHNLFEDNMALPSESVSSLTDLKPPTGSNQASPARRASAILPGVLGSETLSNEVFQESEEEKQPEVPSSLAKGESLSLPGPSPPPDGTEQVIISRVDDPVVNPVATEDTAGLPGTCSSELEFGGTLEDEEPAQEEPEPITASGSLKALRKLLTASVEVPVDSAPVMEEDTNGESHVPQENEEEEEKEPSQAAAIHPDNCEESEVSEREAQPPCPEAHGEELGGFPEVGSPASPPASGGLTEEPLGPMEGELPGEACTLTAHEGRGGKCTEEGDASQQEGCTLGSDPICLSESQVSEEQEEMGGQSSAAQATASVNAEEIKVARIHECQWVVEDAPNPDVLLSHKDDVKEGEGGQESFPELPSEE [FAM129A] | 0.169 | 50 | 49.7 | -0.0907 | 1.18 | 2.35
MADIIARLREDGIQKRVIQEGRGELPDFQDGTKATFHYRTLHSDDEGTVLDDSRARGKPMELIIGKKFKLPVWETIVCTMREGEIAQFLCDIKHVVLYPLVAKSLRNIAVGKDPLEGQRHCCGVAQMREHSSLGHADLDALQQNPQPLIFHMEMLKVESPGTYQQDPWAMTDEEKAKAVPLIHQEGNRLYREGHVKEAAAKYYDAIACLKNLQMKEQPGSPEWIQLDQQITPLLLNYCQCKLVVEEYYEVLDHCSSILNKYDDNVKAYFKRGKAHAAVWNAQEAQADFAKVLELDPALAPVVSRELRALEARIRQKDEEDKARFRGIFSH [AIP] | 0.556 | 49.3 | 50.3 | -0.0524 | 1.14 | 1.52
MTTETGPDSEVKKAQEEAPQQPEAAAAVTTPVTPAGHGHPEANSNEKHPSQQDTRPAEQSLDMEEKDYSEADGLSERTTPSKAQKSPQKIAKKYKSAICRVTLLDASEYECEVEKHGRGQVLFDLVCEHLNLLEKDYFGLTFCDADSQKNWLDPSKEIKKQIRSSPWNFAFTVKFYPPDPAQLTEDITRYYLCLQLRADIITGRLPCSFVTHALLGSYAVQAELGDYDAEEHVGNYVSELRFAPNQTRELEERIMELHKTYRGMTPGEAEIHFLENAKKLSMYGVDLHHAKDSEGIDIMLGVCANGLLIYRDRLRINRFAWPKILKISYKRSNFYIKIRPGEYEQFESTIGFKLPNHRSAKRLWKVCIEHHTFFRLVSPEPPPKGFLVMGSKFRYSGRTQAQTRQASALIDRPAPFFERSSSKRYTMSRSLDGAEFSRPASVSENHDAGPDGDKRDEDGESGGQRSEAEEGEVRTPTKIKELKPEQETTPRHKQEFLDKPEDVLLKHQASINELKRTLKEPNSKLIHRDRDWERERRLPSSPASPSPKGTPEKANERAGLREGSEEKVKPPRPRAPESDTGDEDQDQERDTVFLKDNHLAIERKCSSITVSSTSSLEAEVDFTVIGDYHGSAFEDFSRSLPELDRDKSDSDTEGLLFSRDLNKGAPSQDDESGGIEDSPDRGACSTPDMPQFEPVKTETMTVSSLAIRKKIEPEAVLQTRVSAMDNTQQVDGSASVGREFIATTPSITTETISTTMENSLKSGKGAAAMIPGPQTVATEIRSLSPIIGKDVLTSTYGATAETLSTSTTTHVTKTVKGGFSETRIEKRIIITGDEDVDQDQALALAIKEAKLQHPDMLVTKAVVYRETDPSPEERDKKPQES [EPB41L1] | -0.0349 | 49.6 | 50 | -0.0516 | 0.332 | 0.235
MAAAWGSSLTAATQRAVTPWPRGRLLTASLGPQARREASSSSPEAGEGQIRLTDSCVQRLLEITEGSEFLRLQVEGGGCSGFQYKFSLDTVINPDDRVFEQGGARVVVDSDSLAFVKGAQVDFSQELIRSSFQVLNNPQAQQGCSCGSSFSIKL [ISCA2] | 0.276 | 51.6 | 53.4 | -0.123 | -1.26 | -2.06
MLPNTGRLAGCTVFITGASRGIGKAIALKAAKDGANIVIAAKTAQPHPKLLGTIYTAAEEIEAVGGKALPCIVDVRDEQQISAAVEKAIKKFGGIDILVNNASAISLTNTLDTPTKRLDLMMNVNTRGTYLASKACIPYLKKSKVAHILNISPPLNLNPVWFKQHCAYTIAKYGMSMYVLGMAEEFKGEIAVNALWPKTAIHTAAMDMLGGPGIESQCRKVDIIADAAYSIFQKPKSFTGNFVIDENILKEEGIENFDVYAIKPGHPLQPDFFLDEYPEAVSKKVESTGAVPEFKEEKLQLQPKPRSGAVEETFRIVKDSLSDDVVKATQAIYLFELSGEDGGTWFLDLKSKGGNVGYGEPSDQADVVMSMTTDDFVKMFSGKLKPTMAFMSGKLKIKGNMALAIKLEKLMNQMNARL [HSDL2] | 0.296 | 51.5 | 52.5 | -0.109 | -0.828 | 0.589
